Biological target: FcRn (human) (UniProt P55899)
Assay: Lumit FcRn binding immunoassay (competition); pH 6.0

IC50: 0.0128 µM
Substance: hIgG1

— patent publication US20240400640A1
